According to patent publication US20230416378A1:

Biological target: recombinant human VEGF-A (human) (UniProt P15692)
Test: cell-based or functional assay

recombinant human VEGF-A (human), sequence (P15692 other isoform, or with tags, fused parts or gaps limits assumed): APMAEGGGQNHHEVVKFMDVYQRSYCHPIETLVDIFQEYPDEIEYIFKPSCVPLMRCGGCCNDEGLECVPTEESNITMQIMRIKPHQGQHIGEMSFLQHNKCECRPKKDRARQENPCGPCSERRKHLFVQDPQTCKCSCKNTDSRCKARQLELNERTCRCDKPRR

Substance: Eylea (aflibercept), VEGF trap (Fc fusion)
- VEGF induced cell integrity loss IC50: 0.33 nM
